Where two headings read alike, the source gives them in different places. No end group written: not given here.
B1: YFP-phospholamban (PLB) (natural protein, UniProt P26678 1-52, looked up)
chain: {YFP}-MEKVQYLTRSAIRRASTIEMPQQARQKLQNLFINFCLILICLLLICIIVMLL
modifications: cysteine pairing not given here
B2: YFP-ALN (another-regulin) (natural protein, UniProt Q8WVX3 1-66, looked up)
chain: MEVDAPGVDGRDGLRERRGFSEGGRQNFDVRPQSGANGLPKHSYWLDLWLFILFDVVVFLFVYFLP
B3: YFP-endoregulin (ELN) (natural protein, UniProt P0DI80 1-62, looked up)
chain: MDQLVFKETIWNDAFWQNPWDQGGLAVIILFITAVLLLILFAIVFGLLTSTENTQCEAGEEE

What was measured:
FRET or BRET [1] = molecular target: the molecule itself; assay: FRET or BRET
FRET or BRET [2] = molecular target: the molecule itself; assay: FRET or BRET; remark: listed apart in the source

Protein	stoichiometry N (FRET or BRET [1])	stoichiometry N (FRET or BRET [2])
B1	2	> 2
B2	2	> 2
B3	2	> 2
MTGKNWILISTTTPKSLEDEIVGRLLKILFVIFVDLISIIYVVITS (natural protein, UniProt P0DMT0 1-46, looked up) [YFP-myoregulin (MLN)]	2	> 2

From paper PMC6885550 (Journal of molecular biology, 2019)
